For data set [1], the target named is TDP-43 CTD S342A. Kind of data set: NMR chemical shift perturbation (15N CSP) as a function of protein concentration. The note with it: pH 6.1, without salt; 90 μM vs 20 μM protein; read off a plot.
For data set [2], the target named is TDP-43 CTD M323A. The description is as above. The note with it: pH 6.1, without salt; 90 μM vs 20 μM protein; read off a plot.
In data set [3] the target is TDP-43 CTD F316A. The data set is described as above. As to conditions: pH 6.1, without salt; 90 μM vs 20 μM protein; read off a plot.
The target in data set [4] is TDP-43 CTD L330A. The data set is described as above. As to conditions: pH 6.1, without salt; 90 μM vs 20 μM protein; read off a plot.
Data set [5] concerns the target TDP-43 CTD S→E S317C cross-linked (human) (UniProt Q13148). Briefly: AUC; dimer-tetramer, global Lamm equation modeling. The note with it: domain or fragment.
Data set [6] has the same target. Briefly: AUC; dimer-tetramer, isotherm fit (dimer concentration units). As to conditions: domain or fragment.
Data set [7] concerns the target TDP-43 CTD S→E S305C cross-linked (human) (UniProt Q13148). Kind of data set: AUC; dimer-tetramer. As to conditions: domain or fragment.
The target is the same in data set [8]. Kind of data set: AUC; tetramer-octamer. As to conditions: domain or fragment.
Data set [9] addresses TDP-43 C-terminal domain, wild type (human). Briefly: AUC; sedimentation velocity, 25 °C, 50,000 rpm, absorbance at 280 nm, solution without salt; WT CTD at 33, 58 and 107 µM; c(s) analysis and global Lamm equation modelling of the 58 and 107 µM data (SEDPHAT), monomer-dimer-tetramer model (steps: dimer to monomers; tetramer to dimers); monomer-tetramer model fits similarly.
In data set [10] the target is TDP-43 CTD M339A. Kind of data set: NMR chemical shift perturbation (15N CSP) as a function of protein concentration. The note with it: pH 6.1, without salt; 90 μM vs 20 μM protein; read off a plot.
Data set [11] deals with TDP-43 CTD S317A. The description is as above. The note with it: pH 6.1, without salt; 90 μM vs 20 μM protein; read off a plot.
Data set [12] concerns the target TDP-43 CTD Q343A. The description is as above. As to conditions: pH 6.1, without salt; 90 μM vs 20 μM protein; read off a plot.
Data set [13] concerns the molecule itself. Kind of data set: analytical ultracentrifugation (SEDPHAT).

Consider “TDP-43 C-terminal domain, wild type S342A”, for which the ratio to parent in data set [1] is 1.1. As for “TDP-43 C-terminal domain, wild type M323A”, the ratio to parent in data set [2] turned out to be 0.19. Consider “TDP-43 C-terminal domain, wild type F316A”, for which the ratio to parent in data set [3] was determined as 0.27. For the molecule “TDP-43 C-terminal domain, wild type L330A”, the ratio to parent in data set [4] is 0.13. As usually defined, the Kd is the concentration at which binding is half-saturated. High values mean a looser complex, low ones a tighter complex. Take “TDP-43 CTD S→E S317C cross-linked (from UniProt Q13148)”: the values for the Kd in [5] and in data set [6] were 46 µM and 45 µM, respectively. As to “TDP-43 CTD S→E S305C cross-linked (from UniProt Q13148)”, the Kd in data set [7] stood at 58 µM; in [8], 4.7 µM. As usually defined, the stoichiometry N is the number of molecules, sites or subunits per partner or assembly. Take “TDP-43 C-terminal domain, wild type (domain or fragment)”: in data set [9], the Kd,dim-tet (dimer-tetramer step) worked out at 2.7 µM; the Kd,mon-dim (monomer-dimer step) was found to be 2400 µM; the ceq (concentration for equal population of monomer and tetramer) is 250 to 300 µM; the stoichiometry N came to 4.

In the case of “TDP-43 C-terminal domain, wild type M339A”, the ratio to parent in [10] came to 0.63.

On to “TDP-43 C-terminal domain, wild type S317A”, for which, in data set [11], the ratio to parent amounted to 1.2. In the case of “TDP-43 C-terminal domain, wild type Q343A”, the ratio to parent in data set [12] is 1.2. In the case of NPAMMAAAQAALQSSWGMMGMLA [TDP-43 dimer CTD conserved region], the Kd in [13] was 2.7 µM. Same read-out and setting: the value for NPAMMAAAQAALQSSWGMMGMLA [TDP-43 CTD conserved region] was 2400 µM.

(Values after publication PMC12658102 (2025).)
